18 sequences from the DeepSol protein solubility set can be followed below.

The data set in a line: soluble on expression in E. coli; label from the status in PepcDB or PDB records.
For the sequence “TFGEEESEACKKAFDLSPFPLLSKQKEAVFTAIESSISAIIGGAGTGKTTVLHAVLTAFEALGYVSDASLCPDKTTTNHNIKTMALSCRAAKRMRDCINKSSDGSRRERQISATSIAQFIHQTVIEDAEGKYLVVIDEASMLDVATMYNIITNIHPNVRILLVGDHYQLPPI”, the “soluble on expression in E. coli” value was “not soluble”.

Consider “TGLRPSGTVSCPICMDGYSEIVQNGRLIVSTECGHVFCSQCLRDSLKNANTCPTCRKKINHK”, for which the “soluble on expression in E. coli” value is listed as “soluble”.

Take “TGRGVKYWFCYGTKCYYFIMNKTTWSGCKANCQHYSVPIVKIEDEDELKFLQRHVIPEGYWIGLSYDKKKKEWAWIDNGPSKFDMKIRKMNFKSRGCVFLSKARIEDTDCNIPYYCICGKKLDKFPD”: the “soluble on expression in E. coli” value was “soluble”.

As for “TGSGELLLTSPKGSLTLFAYPGKPSLVTVSDFSAGLLDGTVAVNHMDYDLKSKHTETLVQLNGIPIQSLLDLQGASKLSATGTIRGAIPVVLDNNLFSIPEGRMDAEKNGLIIYASTPEERAAAGAGMRLTYEALGNFFYSELVSNIVMTPDGNSTISIQLKGRNPDFQNNRPVNLNLNIQQNLLDLFRSLTLSSDIEEAISKKVLENSGG”, the “soluble on expression in E. coli” value was “not soluble”.

With “THPVEAAERNYERARAELNQANEDVARNQERQAKAVQVYNSRKSELDAANKTLADAIAEIKQFNRFAHDPMAGGHRMWQMAGLKAQRAQTDVNNKQAAFDAAAKEKSDADAALSAAQERRKQKENKEKDAKDKLD”, the “soluble on expression in E. coli” value is “soluble”.

With “TKDFNWNTDFIFSNAKNEVTDLKQNANVMELISGNGFAKQGYPVRGLFSIPFVGLDKDGIPVIINEKGEATSTDINFQERQNTGFLKYEGPTDPTITGSLGNMFSYKGFRLNLFITYSFGNVIRLNPVFKAYYSDLTAMTREFKNRWTLPGDEAKTNVPAILSKRMYDSNEDLKYAYNAYNYSTERIAKGDFIRLKEISLAYDFPKAWINPLKLTDLSLKVQATNLFLIYADDKLNGQDPEFFNAGGVASPVPRQFTITLRLGL”, the “soluble on expression in E. coli” value is “not soluble”.

On to “TKDFSWTTAFNLSHNKNKILKLADLPWFVDGRYVRKEGYPFNTIYLREYAGVDPETGSALYYDNQQDENGNYTKNKVTDPGQASPIPLKDITPTISGGFMNTFNYKFIDLSFNLSYSFGGYSYDNASYILQDDGYSVISNKSTEQRRRWQKPGDITDVPRFVYGNKKGGNYNSSRAIHSTDHIRLKSLILGLNAPKAWLQKLGIGNARIYFSGTNLLTWAAYDQYDPEMSGVVGFYTPPLKTYAFGLELKF”, for which the “soluble on expression in E. coli” value is reported as “not soluble”.

For “TKDFSWTTSLNLSHNKNKIVKLADLPEFIDGNYIRKEGCSYATIYLREYAGVDPNDGRPMYYDNKEDENGNRSRNIVYDPNDADRVELKDIYPKLTGGLMNTFNYKFIDLSFNLSFHLGGYSYDGAMYALQDDGYTAQYNKSTELRRRWKQPGDITDVPRYVYGQEYGGWWNSSRGVHSTDHLRLKSLIVGVSAPQSWLRTIGINSARIYFSGTNLLTWAAYDQYDPELNGIVSYFTPPLKTFAFGLELKF”, the “soluble on expression in E. coli” value was “not soluble”.

As to “TKDFTWDLSYNITWNHNEITKLTGGDDSDYYVEAGDKISRGNNTKVQAHKVGYAANSFYVYQQVYDENGKPIENMFVDRNGNGTIDSGDKYIYKKPAGDVLMGLTSKMQYKNFDFSFSLRASLNNYVYYDFLSNKANVSTSGLFSNNAYSNTSAEAVALGLSGQGDYMSDYFIHNASFLRCDNITLGYSFQNLWKTQTYKGVGGRVYATVQNPFIISKYKGLDPEVKSGIDANPYPRAMTFLLGLSLQF”, the “soluble on expression in E. coli” value is recorded as “not soluble”.

For “TKVKSIPLLIVPPWINKYYILDLSPHNSLIRWLVEQGITVFIISWVNPDETYANKSFYDYLNEGPREAIAVIQKQLRVKQVNTLGFCIGGTLLASLLAYNKATKDHSIRSATFLAAMIDFSDPGDIAVFIDEQQINKLEEEMKSKGYLAGKFMASSFNSLRANDLIWSFFIKNYLRGKSPVPFDILYWNADSTNMPATMHSQYLRWMYLHNNLIKPGKIRLNHIPIDVTNIDIPTFFLSTQKDHIAPWKTTYKGFELMKGPKRFVLGGSGHI”, the “soluble on expression in E. coli” value is given as “not soluble”.

Turning to “TLLHPLLMRNGDSRPLHKPTTPLPSLDLLTPPPSEVEPVDTFALEQMARLVEARLADFRIKADVVNYSPGPVITRFELNLAPGVKAARISNLSRDLARSLSTVAVRVVEVIPGKPYVGLELPNKKRQTVYLREVLDNAKFRDNPSPLTVVLGKDIAGEPVVADLAKMPHLLVAGTTGSGASVGVNAMILSMLYKAQPEDVRFIMIDPKMLELSVYEGIPHLLTEVVTDMKDAANALRWCVNEMERRYKLMSALGVRNLAGYNEKIAEADRMMRPIPDPYWKPGDSMDAQHPVLKKEPYIVVLVDEFADLMMTVGKKVEELIARLAQKARAAGIHLVLATQRPSVDVITGLIKANIPTRIAFTVSSKIDSRTILDQAGAESLLGMGDMLYSGPNSTLPVRVHGAFVRDQEVHAVVQDWKARGRPQYVDGITSDSESEGGAGGFDGAEELDPLFDQAVQFVTEKRKASISGVQRQFRIGYNRAARIIEQMEAQGIVSEQGHNGNREVLAPPPFD”, the “soluble on expression in E. coli” value was “soluble”.

As for “TLTIYPAAKPNGLAVVACPGGGYIRLAMNHEGHDMADWFNAQGITYAVLKYRMPNGHHDVPLSDAHQAIRLMREHANEWHIQKVGIMGASAGGHLASTAATHYTAGTRPDFQILFYPVISMDLSNCHKGSRDNLLGKSPSEELVRLYSNELQVTGDTPPAFIMHSSDDGAVPVSNSVSYYLALVKNKVPASLHTYPIGGHGWGFRDSFTYKRQWTGELEKWLREIL”, the “soluble on expression in E. coli” value was “not soluble”.

As for “TNAKASKRVYITFTGYDKKPSIDNLKKLDMSITSNPSKCTHLIAPRILRTSKFLCSIPYGPCVVTMDWINSCLKTHEIVDEEPYLLNDPEKELELGCTLESALKRARAQGPSLLEDYVVYLTSKTVAPENVPAVISIVKSNGGVCSTLNVYNKRLARHLEDGNVVLITCNEDSHIWTNFLDNASQNKTIFLQNYDWLIKTVLRQEIDVNDRIADEFARAV”, the “soluble on expression in E. coli” value is on record as “soluble”.

Turning to “TNLFHTYQYGKETMRGGSELTLKQSGAPTDQVTHENKSGLDKAYITQWSYGIGETWSLLIPDIKGGSSGYLGYDEKVMETVNPSYAQAIARMNRYWGDQP”, the “soluble on expression in E. coli” value is “not soluble”.

As to “TNSAVVDVSFGFPSLVGFTFMSEMVHQFKMTFPKARVSMYEAQLSAFLPAIRDGRLDFAIGTLSDEMKLQDLHVEPLFESEFVLVANRARIGNGTVRLASLQHEQWVLPETNMGYYSELLTTLQRSGIRRENIVNTDSVVTIYNLVLNAD”, the “soluble on expression in E. coli” value is listed as “not soluble”.

On to “TNVISTLDLNLLTKGGGSWNVDGVNMKKSAVTTFDGKRVVKAVYDKNSGTSANPGVGGFSFSAVPDGLNKNAITFAWEVFYPKGFDFARGGKHGGTFIGHGAASGYQHSKTGASNRIMWQEKGGVIDYIYPPSDLKQKIPGLDPEGHGIGFFQDDFKNALKYDVWNRIEIGTKMNTFKNGIPQLDGESYVIVNGKKEVLKRINWSRSPDLLISRFDWNTFFGGPLPSPKNQVAYFTNFQMKKYELEHHHHHH”, for which the “soluble on expression in E. coli” value was “soluble”.

For “TPQQRRLSMARRTAASLGYNECVSYTFIDQASAALFGGGTDATMLENPISSEMSHMRPDLLPGLLAAAARNQARGFADLALFEAGPVFHGGEPGEQRAQIAGLLVGRTGPKDVHGAARAVDLYDAKADAEAVLAAMGAPAKVQILRDGDGWWHPGRHGRICLGPKKVLGVFGELHPRVLQAMDVKGPAVAFVLWPEEVPLPRKSGTTRAALAL”, the “soluble on expression in E. coli” value is “not soluble”.

“TPQSITRKVARYIPGTVEHLQEQQQYARKIRDVTAQKVDQFSNVFHALSESFATFYQASDEQTDDSEVDLFLSKITEHSCQTCYKKNRCWVQNFDKTYDLMKQVMLETEEKEYASNRRLKKEFQQYCSKSKQVEELIEDELAHHHAHLTLKKKVQDSRRLVAEQLLGVSEVMADFSREIKREREQHFLQEEQIIEALQHFGIEIQHVEIYSLEQGNIDIEMTIPFSGHGESEKIIAPMLSDILEEQILVKAEQHSPHPNGYSHVAFGSTKSYRVSTGAAHAAKGGGLVSGDSYSMMELGARKYAAAISDGMGNGARAHFESNETIKLLEKILESGIDEKIAIKTINSILSLRTTDEIYSTLDLSIIDLQDASCKFLKVGSTPSFIKRGDQVMKVQASNLPIGIINEFDVEVVSEQLKAGDLLIMMSDGIFEGPKHVENHDLWMKRKMKGLKTNDPQEIADLLMEEVIRTRSGQIEDDMTVVVVRIDHNTPKWASIPVPAIFQNKQEI”: the “soluble on expression in E. coli” value is listed as “not soluble”.
